pKd: −log10 of the molar value.
Molecular target: cis GFP: loop:s11 (light-activated truncated GFP with the 11th β-strand removed, chromophore in the cis configuration)
Assay: absorbance spectroscopy

- pKd: > 12.00
Substance: s11, synthetic peptide corresponding to strand 11 of GFP
